According to article PMC11381544 (Nature Communications, 2024):
Where a chain is given by its changes, count along the chain named. Numbers in names are those of the source.

B1: PCP-P3H1D589A: PCP complex with P3H1 active-site mutation D589A (protein)
chain: EVESEAGWGMVTPDLLFAEGTAAYARGDWPGVVLSMERALRSRAALRALRLRCRTQCAADFPWELDPDWSPSPAQASGAAALRDLSFFGGLLRRAACLRRCLGPPAAHSLSEEMELEFRKRSPYNYLQVAYFKINKLEKAVAAAHTFFVGNPEHMEMQQNLDYYQTMSGVKEADFKDLETQPHMQEFRLGVRLYSEEQPQEAVPHLEAALQEYFVAYEECRALCEGPYDYDGYNYLEYNADLFQAITDHYIQVLNCKQNCVTELASHPSREKPFEDFLPSHYNYLQFAYYNIGNYTQAVECAKTYLLFFPNDEVMNQNLAYYAAMLGEEHTRSIGPRESAKEYRQRSLLEKELLFFAYDVFGIPFVDPDSWTPEEVIPKRLQEKQKSERETAVRISQEIGNLMKEIETLVEEKTKESLDVSRLTREGGPLLYEGISLTMNSKLLNGSQRVVMDGVISDHECQELQRLTNVAATSGDGYRGQTSPHTPNEKFYGVTVFKALKLGQEGKVPLQSAHLYYNVTEKVRRIMESYFRLDTPLYFSYSHLVCRTAIEEVQAERKDDSHPVHVANCILNAETLVCVKEPPAYTFRDYSAILYLNGDFDGGNFYFTELDAKTVTAEVQPQCGRAVGFSSGTENPHGVKAVTRGQRCAIALWFTLDPRHSERDRVQADDLVKMLFSPEEMDLSQEQPLDAQQGPPEPAQESLSGSESKPKDEL
B2: PCP-P3H1W675L: PCP complex with OI-related P3H1 mutation W675L near the active site (protein)
chain: B1 chain with A567D, W653L
B3: PCP-P3H1H587A: PCP complex with P3H1 active-site mutation H587A (protein)
chain: B1 chain with H565A, A567D
B4: D106A/D^P3H1 (protein, UniProt Q32P28 23-736, looked up, variant D106A)
Prolyl 3-hydroxylase 1: B1 chain with D84A, A567D
B5: PCP-P3H1H659A: PCP complex with P3H1 active-site mutation H659A (protein)
chain: B1 chain with A567D, H637A
B6: PCP-P3H1R669A: PCP complex with P3H1 active-site mutation R669A (protein)
chain: B1 chain with A567D, R647A
B7: P3H1/CRTAP: purified P3H1/CRTAP binary complex obtained when PPIB was excluded from co-transfection (protein)
chain 1: B1 chain with A567D
chain 2: QYERYSFRSFPRDELMPLESAYRHALDKYSGEHWAESVGYLEISLRLHRLLRDSEAFCHRNCSAAPQPEPAAGLASYPELRLFGGLLRRAHCLKRCKQGLPAFRQSQPSREVLADFQRREPYKFLQFAYFKANNLPKAIAAAHTFLLKHPDDEMMKRNMAYYKSLPGAEDYIKDLETKSYESLFIRAVRAYNGENWRTSITDMELALPDFFKAFYECLAACEGSREIKDFKDFYLSIADHYVEVLECKIQCEENLTPVIGGYPVEKFVATMYHYLQFAYYKLNDLKNAAPCAVSYLLFDQNDKVMQQNLVYYQYHRDTWGLSDEHFQPRPEAVQFFNVTTLQKELYDFAKENIMDDDEGEVVEYVDDLLELEETS
modifications: left off: twin Strep tag, C-terminal, kept
B8: R76D^P3H1 (protein)
chain: B1 chain with R54D, A567D

Legend:
[1] = test system: P3H1 within the PCP complex; test: 2-OG dependent oxygenase activity; format: biochemical, human; conditions: Succinate-Glo assay, Fig. 1g, Fig. 3f, Supplementary Fig. 1f
[2] = test system: CRTAP and PPIB; test: Co-purification / SDS-PAGE of PCP complex with P3H1 mutants; format: binding, human; conditions: co-expression with CRTAP and PPIB, Supplementary Fig. 1c
[3] = test system: CRTAP; test: Strep-tactin pulldown, P3H1 mutants with CRTAP; format: binding, human; conditions: P3H1 mutations at the X-interface, Fig. 2g

| Molecule | 2OG-Fe (II) oxygenase / P3H1 activity, in words [1] | PCP complex formation of P3H1 active mutants [2] | 2OG-Fe (II) oxygenase / P3H1 activity, in words ([1]; listed as W675L^P3H1) | formation of the PCP complex [3] |
| --- | --- | --- | --- | --- |
| B1 | significantly decreased 2OG-dependent oxygenase activities | could form PCP complex with CRTAP and PPIB |  |  |
| B2 |  |  | reduced enzymatic activities |  |
| B3 | significantly decreased 2OG-dependent oxygenase activities | could form PCP complex with CRTAP and PPIB |  |  |
| B4 |  |  |  | significantly decrease the formation of the PCP complex |
| B5 | significantly decreased 2OG-dependent oxygenase activities | could form PCP complex with CRTAP and PPIB |  |  |
| B6 | significantly decreased 2OG-dependent oxygenase activities | could form PCP complex with CRTAP and PPIB |  |  |
| B7 | elevated P3H1 activities |  |  |  |
| B8 |  |  |  | significantly decrease the formation of the PCP complex |
